In PMC8794075 (Emerging Microbes & Infections, 2022):

How the values were obtained:
[1] = target: SARS-CoV-2 RBD protein (wild type) (SARS-CoV-2, UniProt P0DTC2); test: ELISA; conditions: both partners purified
SARS-CoV-2 NTD protein = SARS-CoV-2 NTD protein (SARS-CoV-2 Wuhan-Hu-1, UniProt P0DTC2); test: ELISA; conditions: both partners purified

B1: MAb S3H3 (antibody, V domains shown)
VH: QVQLQQPGAELVRPGASVKLSCKASGYSFTRFWMNWVKQRPGQGLEWIGMIHPSDSETRLNQKFKDKATLTVDKSSTTAYMQLSSPTSEDSAVYYCARKDYDYDAWFAYWGQGTLVTVSA
VL: DIVLTQSPASLAVSLGQRATISCRASKSVSASVYSYMHWYQQKPGQPPKLLIYLASSLESGVPARFSGSGSGTDFTLNIHPVEEEDAATYYCHHSRELPPAFGGGTKLEIK
[1]
  binding result: no binding (tested: 100 ng/well)
SARS-CoV-2 NTD protein
  binding result: no binding (tested: 100 ng/well)
